± gives the standard deviation of the averaged measurements.

Data set [1] concerns MCF7. Briefly: percentage of EdU-negative (G0-arrested) nuclei per well, 72 h; higher = more G0 arrest. The following applies: reference: sequence is the full UniProt precursor, the tested protein was the secreted form or ectodomain.
For data set [2], the system named is hTERT-HMEC. The data set is described as above. The following applies: reference: sequence is the full UniProt precursor, the tested protein was the secreted form or ectodomain.
[3] abbreviates: protein concentration 0.00925 µM.
The mark [4] stands for this setting: protein concentration 0.0925 µM.
Where [5] appears, read: protein concentration 0.01425 µM.
Where [6] appears, read: protein concentration 0.1425 µM.
[7] abbreviates: protein concentration 0.0225 µM.
Where [8] appears, read: protein concentration 0.03125 µM.
Where [9] appears, read: protein concentration 0.3125 µM.
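Further: secreted proteins added to cultured cells, EdU pulse at the end, nuclei found by Hoechst imaging, EdU status from nuclear versus surrounding ring intensity ratio, PBS as neutral control.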

As to “MPPFLLLTCLFITGTSVSPVALDPCSAYISLNEPWRNTDHQLDESQGPPLCDNHVNGEWYHFTGMAGDAMPTFCIPENHCGTHAPVWLNGSHPLEGDGIVQRQACASFNGNCCLWNTTVEVKACPGGYYVYRLTKPSVCFHVYCGHFYDICDEDCHGSCSDTSECTCAPGTVLGPDRQTCFDENECEQNNGGCSEICVNLKNSYRCECGVGRVLRSDGKTCEDVEGCHNNNGGCSHSCLGSEKGYQCECPRGLVLSEDNHTCQVPVLCKSNAIEVNIPRELVGGLELFLTNTSCRGVSNGTHVNILFSLKTCGTVVDVVNDKIVASNLVTGLPKQTPGSSGDFIIRTSKLLIPVTCEFPRLYTISEGYVPNLRNSPLEIMSRNHGIFPFTLEIFKDNEFEEPYREALPTLKLRDSLYFGIEPVVHVSGLESLVESCFATPTSKIDEVLKYYLIRDGCVSDDSVKQYTSRDHLAKHFQVPVFKFVGKDHKEVFLHCRVLVCGVLDERSRCAQGCHRRMRRGAGGEDSAGLQGQTLTGGPIRIDWED [Q8WWZ8]”, the “percentage of EdU-negative” value in data set [1] (protein concentration 0.007 µM) was determined as 25.2 ± 1.8%; in data set [1] (protein concentration 0.07 µM), 27.3 ± 1.3%; in data set [2] (protein concentration 0.007 µM), 5.2 ± 0.59%; in data set [2] (protein concentration 0.07 µM) it was 5.67 ± 1.7%.
On to “MPPGPWESCFWVGGLILWLSVGSSGDAPPTPQPKCADFQSANLFEGTDLKVQFLLFVPSNPSCGQLVEGSSDLQNSGFNATLGTKLIIHGFRVLGTKPSWIDTFIRTLLRATNANVIAVDWIYGSTGVYFSAVKNVIKLSLEISLFLNKLLVLGVSESSIHIIGVSLGAHVGGMVGQLFGGQLGQITGLDPAGPEYTRASVEERLDAGDALFVEAIHTDTDNLGIRIPVGHVDYFVNGGQDQPGCPTFFYAGYSYLICDHMRAVHLYISALENSCPLMAFPCASYKAFLAGRCLDCFNPFLLSCPRIGLVEQGGVKIEPLPKEVKVYLLTTSSAPYCMHHSLVEFHLKELRNKDTNIEVTFLSSNITSSSKITIPKQQRYGKGIIAHATPQCQINQVKFKFQSSNRVWKKDRTTIIGKFCTALLPVNDREKMVCLPEPVNLQASVTVSCDLKIACV [Q53H76]”, for which the “percentage of EdU-negative” value in data set [1] (setting [3]) came to 24.3 ± 1.9%; in data set [1] (setting [4]) it was 28.4 ± 1.4%; in data set [2] (setting [3]), 4.11 ± 0.46%; in data set [2] (setting [4]), 6.06 ± 0.41%.
With “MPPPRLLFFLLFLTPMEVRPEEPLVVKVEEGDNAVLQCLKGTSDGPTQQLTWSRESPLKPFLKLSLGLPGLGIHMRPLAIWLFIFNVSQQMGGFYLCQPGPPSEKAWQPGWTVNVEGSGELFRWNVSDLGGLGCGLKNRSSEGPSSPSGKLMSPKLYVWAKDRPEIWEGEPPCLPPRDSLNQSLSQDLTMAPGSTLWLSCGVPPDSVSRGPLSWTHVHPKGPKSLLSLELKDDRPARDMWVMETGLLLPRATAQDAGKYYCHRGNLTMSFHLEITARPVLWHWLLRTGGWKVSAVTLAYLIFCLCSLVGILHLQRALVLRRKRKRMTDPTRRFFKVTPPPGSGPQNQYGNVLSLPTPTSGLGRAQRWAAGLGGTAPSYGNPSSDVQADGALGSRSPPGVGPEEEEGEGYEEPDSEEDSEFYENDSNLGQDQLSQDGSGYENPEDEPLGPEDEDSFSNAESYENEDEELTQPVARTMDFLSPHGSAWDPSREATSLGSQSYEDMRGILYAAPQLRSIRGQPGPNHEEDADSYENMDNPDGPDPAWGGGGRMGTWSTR”, the “percentage of EdU-negative” value in data set [1] (setting [5]) came to 25.2 ± 1.1%; in data set [1] (setting [6]), 26.2 ± 0.68%; in data set [2] (setting [5]), 5.66 ± 0.95%; in data set [2] (setting [6]) it was 8.73 ± 0.49%.
With “MPPRGPASELLLLRLLLLGAATAAPLAPRPSKEELTRCLAEVVTEVLTVGQVQRGPCTALLHKELCGTEPHGCASTEEKGLLLGDFKKQEAGKMRSSQEVRDEEEEEVAERTHKSEVQEQAIRMQGHRQLHQEEDEEEEKEERKRGPMETFEDLWQRHLENGGDLQKRVAEKASDKETAQFQAEEKGVRVLGGDRSLWQGAERGGGERREDLPHHHHHHHQPEAEPRQEKEEASEREEKEVEQLEHLRDELKKVTETLGEQLRREG [I3L3R5]”, the “percentage of EdU-negative” value in data set [1] (setting [7]) came to 26.1 ± 0.53%; in data set [1] (protein concentration 0.225 µM), 26.5 ± 0.58%; in data set [2] (setting [7]) it was 5.07 ± 1.4%; in data set [2] (protein concentration 0.225 µM) it was 7.54 ± 0.57%.
On to “MPPSGPRGTLLLLPLLLLLLLRAVLAVPLERGAPNKEETPATESPDTGLYYHRYLQEVIDVLETDGHFREKLQAANAEDIKSGKLSRELDFVSHHVRTKLDELKRQEVSRLRMLLKAKMDAEQDPNVQVDHLNLLKQFEHLDPQNQHTFEARDLELLIQTATRDLAQYDAAHHEEFKRYEMLKEHERRRYLESLGEEQRKEAERKLEEQQRRHREHPKVNVPGSQAQLKEVWEELDGLDPNRFNPKTFFILHDINSDGVLDEQELEALFTKELEKVYDPKNEEDDMREMEEERLRMREHVMKNVDTNQDRLVTLEEFLASTQRKEFGDTGEGWETVEMHPAYTEEELRRFEEELAAREAELNAKAQRLSQETEALGRSQGRLEAQKRELQQAVLHMEQRKQQQQQQQGHKAPAAHPEGQLKFHPDTDDVPVPAPAGDQKEVDTSEKKLLERLPEVEVPQHL”, for which the “percentage of EdU-negative” value in data set [1] (setting [8]) is 24.1 ± 0.73%; in data set [1] (setting [9]) it was 26.9 ± 1.6%; in data set [2] (setting [8]), 4.94 ± 0.37%; in data set [2] (setting [9]) it was 7.16 ± 0.53%.
As for “MPRAPAPLYACLLGLCALLPRLAGLNICTSGSATSCEECLLIHPKCAWCSKEDFGSPRSITSRCDLRANLVKNGCGGEIESPASSFHVLRSLPLSSKGSGSAGWDVIQMTPQEIAVNLRPGDKTTFQLQVRQVEDYPVDLYYLMDLSLSMKDDLDNIRSLGTKLAEEMRKLTSNFRLGFGSFVDKDISPFSYTAPRYQTNPCIGYKLFPNCVPSFGFRHLLPLTDRVDSFNEEVRKQRVSRNRDAPEGGFDAVLQAAVCKEKIGWRKDALHLLVFTTDDVPHIALDGKLGGLVQPHDGQCHLNEANEYTASNQMDYPSLALLGEKLAENNINLIFAVTKNHYMLYKNFTALIPGTTVEILDGDSKNIIQLIINAYNSIRSKVELSVWDQPEDLNLFFTATCQDGVSYPGQRKCEGLKIGDTASFEVSLEARSCPSRHTEHVFALRPVGFRDSLEVGVTYNCTCGCSVGLEPNSARCNGSGTYVCGLCECSPGYLGTRCECQDGENQSVYQNLCREAEGKPLCSGRGDCSCNQCSCFESEFGKIYGPFCECDNFSCARNKGVLCSGHGECHCGECKCHAGYIGDNCNCSTDISTCRGRDGQICSERGHCLCGQCQCTEPGAFGEMCEKCPTCPDACSTKRDCVECLLLHSGKPDNQTCHSLCRDEVITWVDTIVKDDQEAVLCFYKTAKDCVMMFTYVELPSGKSNLTVLREPECGNTPNAMTILLAVVGSILLVGLALLAIWKLLVTIHDRREFAKFQSERSRARYEMASNPLYRKPISTHTVDFTFNKFNKSYNGTVD”, the “percentage of EdU-negative” value in data set [1] (setting [7]) came to 25.2 ± 1.3%; in data set [1] (protein concentration 0.225 µM), 26 ± 1.5%; in data set [2] (setting [7]), 5.13 ± 0.59%; in data set [2] (protein concentration 0.225 µM), 7.6 ± 1.1%.
In the case of “MPRCRWLSLILLTIPLALVARKDPKKNETGVLRKLKPVNASNANVKQCLWFAMQEYNKESEDKYVFLVVKTLQAQLQVTNLLEYLIDVEIARSDCRKPLSTNEICAIQENSKLKRKLSCSFLVGALPWNGEFTVMEKKCEDA”, the “percentage of EdU-negative” value in data set [1] (setting [7]) was found to be 27.2 ± 1.2%; in data set [1] (protein concentration 0.225 µM), 25.6 ± 1.6%; in data set [2] (setting [7]), 5.21 ± 1.2%; in data set [2] (protein concentration 0.225 µM), 4.56 ± 0.34%.
